Molecular target: T1, TSC1 (human, UniProt Q92574 1-1164)
T1 sequence (looked up): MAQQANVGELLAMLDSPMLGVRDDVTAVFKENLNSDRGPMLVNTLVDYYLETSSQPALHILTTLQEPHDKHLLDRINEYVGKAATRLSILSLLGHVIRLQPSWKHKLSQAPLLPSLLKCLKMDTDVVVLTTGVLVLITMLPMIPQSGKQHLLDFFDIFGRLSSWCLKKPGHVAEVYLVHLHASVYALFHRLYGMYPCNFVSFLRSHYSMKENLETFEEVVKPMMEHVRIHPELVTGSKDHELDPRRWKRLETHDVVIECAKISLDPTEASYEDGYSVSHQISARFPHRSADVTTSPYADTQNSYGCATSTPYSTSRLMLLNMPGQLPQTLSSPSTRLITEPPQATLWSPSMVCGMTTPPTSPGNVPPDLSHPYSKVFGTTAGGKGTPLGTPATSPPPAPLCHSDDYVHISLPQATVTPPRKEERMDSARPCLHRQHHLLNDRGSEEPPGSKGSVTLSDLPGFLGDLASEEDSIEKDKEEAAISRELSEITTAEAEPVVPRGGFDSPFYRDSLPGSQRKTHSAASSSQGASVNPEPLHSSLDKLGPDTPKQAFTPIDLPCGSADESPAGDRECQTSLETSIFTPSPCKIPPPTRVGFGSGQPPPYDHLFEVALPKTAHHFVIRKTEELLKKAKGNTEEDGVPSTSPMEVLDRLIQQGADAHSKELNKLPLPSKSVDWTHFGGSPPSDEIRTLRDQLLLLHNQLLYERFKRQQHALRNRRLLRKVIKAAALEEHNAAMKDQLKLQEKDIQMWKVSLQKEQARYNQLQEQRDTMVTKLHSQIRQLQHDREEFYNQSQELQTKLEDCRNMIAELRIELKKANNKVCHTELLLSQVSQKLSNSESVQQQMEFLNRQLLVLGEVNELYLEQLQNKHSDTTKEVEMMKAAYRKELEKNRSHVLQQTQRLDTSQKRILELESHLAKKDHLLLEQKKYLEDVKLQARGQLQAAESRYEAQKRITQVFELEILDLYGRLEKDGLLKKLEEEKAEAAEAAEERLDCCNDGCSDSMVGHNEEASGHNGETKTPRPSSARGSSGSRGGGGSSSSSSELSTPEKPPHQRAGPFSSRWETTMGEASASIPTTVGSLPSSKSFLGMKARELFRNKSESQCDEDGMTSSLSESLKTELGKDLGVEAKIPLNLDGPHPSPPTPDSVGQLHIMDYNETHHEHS
Assay: cell-based or functional assay

| Binder | in vitro rheb GAP activity of the immunoprecipitated TSC1–TSC2 variant complex: rheb-bound GDP/GTP ratio after 90 minutes | in vitro rheb GAP activity of the immunoprecipitated TSC1–TSC2 complex: rheb-bound GDP/GTP ratio after 90 minutes |
| --- | --- | --- |
| TSC2 I820del variant (natural protein) not shown | 0.9 | – |
| wild-type TSC2 (natural protein) not shown | – | 1.4 |
